Measurements reported in patent publication US20260055205A1 (published 2026).
Changes are numbered by the printed parent chain.

T1: cyCD3e-Fc (cynomolgus monkey, UniProt Q95LI5 22-117)
T1 sequence (looked up): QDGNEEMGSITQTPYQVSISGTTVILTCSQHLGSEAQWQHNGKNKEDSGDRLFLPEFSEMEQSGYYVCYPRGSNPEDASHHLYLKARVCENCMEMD

B1: PSMA.6 (uTCE of AC2728) (bispecific antibody, V domains shown)
VH: EVQLVESGGGVVQPGRSLRLSCAASGRTFGIYVMGWVRQAPGKEREFVAAISWSGSNRLVSDSVKGRFTISRDNSKNTLYLQMNSLRAEDTAVYFCAASNRLYGRTWYDFNESDYWGQGTTVTVSS
notes: TCE with CD3.23; also called VHH14
B2: AC2717 (PSMA.5 with CD3.23) (bispecific antibody, V domains shown)
VHH: B1 VH with E1Q, F95Y, T121Q
VL: ELVVTQEPSLTVSPGGTVTLTCRSSNGAVTSSNYANWVQQKPGQAPRGLIGGTNKRAPGTPARFSGSLLGGKAALTLSGVQPEDEAVYYCALWYPNLWVFGGGTKLTVL
VH: EVQLLESGGGIVQPGGSLKLSCAASGFTFNTYAMNWVRQAPGKGLEWVARIRSKYNNYATYYADSVKDRFTISRDDSKNTVYLQMNNLKTEDTAVYYCVRHENFGNSYVSWFAHWGQGTLVTVSS
notes: Domains of one TCE chain; also called VHH3
B3: PSMA.264 (bispecific antibody, V domains shown)
VH: B1 VH with E1Q, V33A, I51M, L59K, F95Y, R101K, T121Q
notes: TCE with CD3.23; also called AC3473
B4: PSMA.284 (bispecific antibody, V domains shown)
VH: B1 VH with E1Q, V33A, A49G, L59K, F95Y, T121Q
notes: TCE with CD3.23; also called AC3493
B5: PSMA.278 (bispecific antibody, V domains shown)
VH: B1 VH with E1Q, M34W, A49G, L59K, F95Y, L102M, T121Q
notes: TCE with CD3.23; also called AC3487
B6: PSMA.254 (bispecific antibody, V domains shown)
VH: B1 VH with E1Q, V37Y, I51M, L59K, F95Y, L102Y, T121Q
notes: TCE with CD3.23; also called AC3465
B7: PSMA.282 (bispecific antibody, V domains shown)
VH: B1 VH with E1Q, M34W, I51M, L59K, F95Y, L102M, T121Q
notes: TCE with CD3.23; also called AC3491
B8: PSMA.281 (bispecific antibody, V domains shown)
VH: B1 VH with E1Q, M34F, I51M, L59K, F95Y, L102M, T121Q
notes: TCE with CD3.23; also called AC3490
B9: PSMA.257 (bispecific antibody, V domains shown)
VH: B1 VH with E1Q, V37Y, L59K, F95Y, T121Q
notes: TCE with CD3.23; also called AC3468
B10: PSMA.253 (bispecific antibody, V domains shown)
VH: B1 VH with E1Q, V37Y, L59K, F95Y, L102W, T121Q
notes: TCE with CD3.23; also called AC3464
B11: AC3471 (PSMA.262 with CD3.23) (bispecific antibody, V domains shown)
VHH: B1 VH with E1Q, M34W, A49G, L59K, F95Y, R101K, T121Q
VL: B2 VL
VH: B2 VH
notes: Domains of one TCE chain; also called CD3.23 WT
B12: PSMA.285 (bispecific antibody, V domains shown)
VH: B1 VH with E1Q, M34F, A49G, L59K, F95Y, T121Q
notes: TCE with CD3.23; also called AC3494
B13: PSMA.271 (bispecific antibody, V domains shown)
VH: B1 VH with E1Q, V37F, A49G, L59K, F95Y, L102T, T121Q
notes: TCE with CD3.23; also called AC3480
B14: PSMA.267 (bispecific antibody, V domains shown)
VH: B1 VH with E1Q, V37F, I51M, L59K, F95Y, R101K, T121Q
notes: TCE with CD3.23; also called AC3476
B15: PSMA.291 (bispecific antibody, V domains shown)
VH: B1 VH with E1Q, V37F, I51M, L59K, F95Y, T121Q
notes: TCE with CD3.23; also called AC3500
B16: PSMA.274 (bispecific antibody, V domains shown)
VH: B1 VH with E1Q, M34W, I51M, L59K, F95Y, L102T, T121Q
notes: TCE with CD3.23; also called AC3483
B17: PSMA.272 (bispecific antibody, V domains shown)
VH: B1 VH with E1Q, V33A, I51M, L59K, F95Y, L102T, T121Q
notes: TCE with CD3.23; also called AC3481
B18: PSMA.256 (bispecific antibody, V domains shown)
VH: B1 VH with E1Q, V37Y, I51M, L59K, F95Y, T121Q
notes: TCE with CD3.23; also called AC3467
B19: PSMA.289 (bispecific antibody, V domains shown)
VH: B1 VH with E1Q, M34F, I51M, L59K, F95Y, T121Q
notes: TCE with CD3.23; also called AC3498
B20: PSMA.288 (bispecific antibody, V domains shown)
VH: B1 VH with E1Q, V33A, I51M, L59K, F95Y, T121Q
notes: TCE with CD3.23; also called AC3497
B21: PSMA.275 (bispecific antibody, V domains shown)
VH: B1 VH with E1Q, V37F, I51M, L59K, F95Y, L102T, T121Q
notes: TCE with CD3.23; also called AC3484
B22: PSMA.287 (bispecific antibody, V domains shown)
VH: B1 VH with E1Q, V37F, A49G, L59K, F95Y, T121Q
notes: TCE with CD3.23; also called AC3496
B23: PSMA.286 (bispecific antibody, V domains shown)
VH: B1 VH with E1Q, M34W, A49G, L59K, F95Y, T121Q
notes: TCE with CD3.23; also called AC3495
B24: PSMA.269 (bispecific antibody, V domains shown)
VH: B1 VH with E1Q, M34F, A49G, L59K, F95Y, L102T, T121Q
notes: TCE with CD3.23; also called AC3478
B25: PSMA.283 (bispecific antibody, V domains shown)
VH: B1 VH with E1Q, V37F, I51M, L59K, F95Y, L102M, T121Q
notes: TCE with CD3.23; also called AC3492
B26: PSMA.273 (bispecific antibody, V domains shown)
VH: B1 VH with E1Q, M34F, I51M, L59K, F95Y, L102T, T121Q
notes: TCE with CD3.23; also called AC3482
B27: PSMA.279 (bispecific antibody, V domains shown)
VH: B1 VH with E1Q, V37F, A49G, L59K, F95Y, L102M, T121Q
notes: TCE with CD3.23; also called AC3488
B28: PSMA.265 (bispecific antibody, V domains shown)
VH: B1 VH with E1Q, M34F, I51M, L59K, F95Y, R101K, T121Q
notes: TCE with CD3.23; also called AC3474
B29: PSMA.266 (bispecific antibody, V domains shown)
VH: B1 VH with E1Q, M34W, I51M, L59K, F95Y, R101K, T121Q
notes: TCE with CD3.23; also called AC3475
B30: PSMA.268 (bispecific antibody, V domains shown)
VH: B1 VH with E1Q, V33A, A49G, L59K, F95Y, L102T, T121Q
notes: TCE with CD3.23; also called AC3477
B31: PSMA.261 (bispecific antibody, V domains shown)
VH: B1 VH with E1Q, M34F, A49G, L59K, F95Y, R101K, T121Q
notes: TCE with CD3.23; also called AC3470
B32: PSMA.270 (bispecific antibody, V domains shown)
VH: B1 VH with E1Q, M34W, A49G, L59K, F95Y, L102T, T121Q
notes: TCE with CD3.23; also called AC3479
B33: PSMA.255 (bispecific antibody, V domains shown)
VH: B1 VH with E1Q, V37Y, L59K, F95Y, L102Y, T121Q
notes: TCE with CD3.23; also called AC3466
B34: PSMA.276 (bispecific antibody, V domains shown)
VH: B1 VH with E1Q, V33A, A49G, L59K, F95Y, L102M, T121Q
notes: TCE with CD3.23; also called AC3485
B35: PSMA.290 (bispecific antibody, V domains shown)
VH: B1 VH with E1Q, M34W, I51M, L59K, F95Y, T121Q
notes: TCE with CD3.23; also called AC3499
B36: PSMA.277 (bispecific antibody, V domains shown)
VH: B1 VH with E1Q, M34F, A49G, L59K, F95Y, L102M, T121Q
notes: TCE with CD3.23; also called AC3486
B37: PSMA.260 (bispecific antibody, V domains shown)
VH: B1 VH with E1Q, V33A, A49G, L59K, F95Y, R101K, T121Q
notes: TCE with CD3.23; also called AC3469
B38: PSMA.280 (bispecific antibody, V domains shown)
VH: B1 VH with E1Q, V33A, I51M, L59K, F95Y, L102M, T121Q
notes: TCE with CD3.23; also called AC3489
B39: CD3.227 (bispecific antibody, V domains shown)
VH: B2 VH with L5V, K19R, A49G, S53T, Y55R, D68G, N87S
VL: B2 VL
notes: paTCE with PSMA.262; also called AC3658
B40: CD3.230 (bispecific antibody, V domains shown)
VH: B2 VH with L5V, K19R, N30S, A49G, S53T, Y55T, D68G, N87S
VL: B2 VL
notes: paTCE with PSMA.262; also called AC3661
B41: CD3.229 (bispecific antibody, V domains shown)
VH: B2 VH with L5V, K19R, A49G, S53T, Y55T, D68G, N87S
VL: B2 VL
notes: paTCE with PSMA.262; also called AC3660
B42: CD3.228 (bispecific antibody, V domains shown)
VH: B2 VH with L5V, K19R, N30S, A49G, S53T, Y55R, D68G, N87S
VL: B2 VL
notes: paTCE with PSMA.262; also called AC3659

target: T2, human PSMA-Fc (human, UniProt Q04609 44-750); assay: Octet
T2 construct: also called Human PSMA-Fc fusion
T2 sequence (Q04609 44-750 limits assumed): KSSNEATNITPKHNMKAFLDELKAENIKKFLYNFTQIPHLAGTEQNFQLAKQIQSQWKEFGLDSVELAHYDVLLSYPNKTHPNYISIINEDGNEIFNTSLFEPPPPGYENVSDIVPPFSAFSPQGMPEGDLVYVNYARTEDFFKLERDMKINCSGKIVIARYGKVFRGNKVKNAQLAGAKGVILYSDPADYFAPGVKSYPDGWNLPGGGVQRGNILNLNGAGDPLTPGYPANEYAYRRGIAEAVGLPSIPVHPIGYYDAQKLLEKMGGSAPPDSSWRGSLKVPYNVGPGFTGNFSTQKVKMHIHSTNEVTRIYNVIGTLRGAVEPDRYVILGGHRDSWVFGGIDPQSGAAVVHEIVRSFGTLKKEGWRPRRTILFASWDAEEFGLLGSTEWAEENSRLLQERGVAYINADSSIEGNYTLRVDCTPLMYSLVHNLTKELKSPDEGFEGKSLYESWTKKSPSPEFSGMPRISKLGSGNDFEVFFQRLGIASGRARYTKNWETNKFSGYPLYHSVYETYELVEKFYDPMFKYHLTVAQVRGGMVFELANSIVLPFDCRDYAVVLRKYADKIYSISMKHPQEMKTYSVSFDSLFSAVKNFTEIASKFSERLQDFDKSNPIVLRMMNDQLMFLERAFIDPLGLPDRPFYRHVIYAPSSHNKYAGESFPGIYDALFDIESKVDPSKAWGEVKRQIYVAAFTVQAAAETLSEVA

| Kd [nM] | koff [s⁻¹] | kon [M⁻¹ s⁻¹] | Binder |
| --- | --- | --- | --- |
| 2.3 | 0.00024 | 96000 | B1 |

target: T3, human PSMA (human, UniProt Q04609 44-750, limits assumed); assay: binding screen
T3 construct: also called huPSMA; hPSMA
T3 sequence (Q04609 44-750 limits assumed): as above

| Kd [nM] | binding result | Binder |
| --- | --- | --- |
| 4.8 |  | B2 |
| 18.6 |  | B3 |
| 4.1 |  | B4 |
| 3.9 |  | B5 |
| 41 |  | B6 |
| 8.7 |  | B7 |
| 5.3 |  | B8 |
| 2.3 |  | B9 |
| 8.5 |  | B10 |
| 2.7 |  | B11 |
| 3.1 |  | B12 |
| 9.1 |  | B13 |
| 5.6 |  | B14 |
| 2.6 |  | B15 |
| 39.6 |  | B16 |
| 504 |  | B17 |
| 3.4 |  | B18 |
| 6.2 |  | B19 |
| 6 |  | B20 |

| Kd [nM] | binding result | Binder |
| --- | --- | --- |
| 20.5 |  | B21 |
| 2.3 |  | B22 |
|  | no binding | B23 |
| 5.5 |  | B24 |
| 3.5 |  | B25 |
| 16.6 |  | B26 |
| 2.3 |  | B27 |
| 3.9 |  | B28 |
| 4.6 |  | B29 |
| 131 |  | B30 |
| 2.1 |  | B31 |
| 6.5 |  | B32 |
| 18.9 |  | B33 |
| 10.5 |  | B34 |
| 5.5 |  | B35 |
| 3.1 |  | B36 |
| 11.4 |  | B37 |
| 16.3 |  | B38 |

target: T2, human PSMA-Fc; assay: Octet, PSMA-Fc
Method: Binding affinity of select PSMA PTE variants was tested by Octet.

| Kd [nM] | koff [s⁻¹] | kon [M⁻¹ s⁻¹] | Binder |
| --- | --- | --- | --- |
| 2.3 | 0.000235 | 96300 | B1 |

target: huCD3e-Fc (human, UniProt P07766 23-126); assay: Octet, purified
Method: (§1) Pool 2 consisted of paTCE molecules each containing PSMA.262 and one of 64 CD3.23 mutation combination variants. Stability and affinity of the individually expressed molecules in the form of crude lysate was evaluated by Octet. […] The binding of these anti-CD3 molecules (CD3.227, CD3.228, CD3.229 and CD3.230) to human and cynomolgus CD3 was measured by Octet and the Tm was measured by Differential Scanning Fluorimetry. All variants were paired with PSMA.262 except for CD3.23 which was paired with PSMA.5.

Chain of huCD3e-Fc (P07766 23-126): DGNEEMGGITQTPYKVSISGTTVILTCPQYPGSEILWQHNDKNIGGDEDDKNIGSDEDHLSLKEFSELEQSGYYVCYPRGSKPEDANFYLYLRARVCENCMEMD

| Kd [nM] | koff [s⁻¹] | kon [M⁻¹ s⁻¹] | Binder |
| --- | --- | --- | --- |
| 131 | 0.0289 | 220000 | B2 |
| 57 | 0.0196 | 342000 | B39 |
| 195 | 0.0633 | 325000 | B40 |
| 162 | 0.052 | 321000 | B41 |
| 69 | 0.0217 | 317000 | B42 |

target: T1, cyCD3e-Fc; assay: Octet, purified
Method: as §1

| Kd [nM] | koff [s⁻¹] | kon [M⁻¹ s⁻¹] | Binder |
| --- | --- | --- | --- |
| 130 | 0.0312 | 240000 | B2 |
| 80 | 0.0253 | 315000 | B39 |
| 216 | 0.0726 | 336000 | B40 |
| 193 | 0.0611 | 317000 | B41 |
| 80 | 0.0266 | 334000 | B42 |

target: T4, human CD3 epsilon (human, UniProt P07766 23-126, limits assumed); assay: Octet, crude lysate
T4 construct: also called huCD3e
In short: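 Binding of anti-CD3 paTCE variants to human and cynomolgus CD3 measured by Octet, using either purified protein or individually expressed crude lysate. Variants were paired with PSMA.262, except CD3.23, which was paired with PSMA.5.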

T4 sequence (P07766 23-126 limits assumed): as the sequence (P07766 23-126) above

| Kd [nM] | Binder |
| --- | --- |
| 12.9 | B2 |
| 13.5 | B11 |
| 8.2 | B39 |
| 17 | B40 |
| 11.9 | B41 |
| 6.2 | B42 |
